Experimental data: the RNAGym collection of RNA variant scans (doi:10.7554/elife.90254)

B1: OR4K15 (parent)
chain: GUUAACGGUCAUAGGCCAUGGAAACUAGGAGCACCAUUUCGCUGCCAGUGAAGAAAUGAACAAAGAAAAUCUGGGCCAGGCAGGCAUCAAAAGAAAUAGUCUUGCGCUCAACCAGAAAGUCUGUAAUCAUUUUAAGGGUA

Variants of: B1
Test: self-cleavage, relative activity (ratio to wild type); higher = more cleavage; in vitro, sequencing; the parent is a self-cleaving ribozyme

Point of comparison: GUUAACGGUCAUAGGCCAUGGAAACUAGGAGCACCAUUUCGCUGCCCGUGAAGGAAUGAACAAAGAAAAUCUGGGCCAGGCAGGCAUCAAAAGAAAUAGUCUUGCGCUCAACCAGAAAGUCUGUAAUCAUUUUAAGGGUA [A47C A54G], self-cleavage 1.5. Against it:
- GUUAACGGUCAUAGGCCAUGGAAACUAGGAGCACCAUUUCGCUGCCCGUGGAGAAAUGAACAAAGAAAAUCUGGGCCAGGCAGGCAUCAAAAGAAAUAGUCUUGCGCUCAACCAGAAAGUCUGUAAUCAUUUUAAGGGUA [A47C A51G] — the same, 1.5
- GUUAACGGUCAUAGGCCAUGGAAACUAGGAGCACCAUUUCGCUGCCCGUGAAGAAAUGCACAAAGAAAAUCUGGGCCAGGCAGGCAUCAAAAGAAAUAGUCUUGCGCUCAACCAGAAAGUCUGUAAUCAUUUUAAGGGUA [A47C A59C] — lower, 1.35
- GUUAACGGUCAUAGGCCAUGGAAACUAGGAGCACCAUUUCGCUGCCCGUGAAGAAAUGAACAAAGAAAAUCUGGGCCAGGCAGGCAUCAAAAGAAAUAGUCUUGCGCUCAACCAGAAAGUCUGUGAUCAUUUUAAGGGUA [A47C A125G] — lower, 0.42
- GUUAACGGUCAUAGGCCAUGGAAACUAGGAGCACCAUUUCGCUGCCCGUGAGGAAAUGAACAAAGAAAAUCUGGGCCAGGCAGGCAUCAAAAGAAAUAGUCUUGCGCUCAACCAGAAAGUCUGUAAUCAUUUUAAGGGUA [A47C A52G] — lower, 0.57
- GUUAACGGUCAUAGGCCAUGGAAACUAGGAGCACCAUUUCGCUGCCCGUGAAGAAAUGAACAAAGAAAAUCUGGGCCAGGCAGGCAUCAAAAGAAAUAGUCUUGCGCUCAACCGGAAAGUCUGUAAUCAUUUUAAGGGUA [A47C A114G] — lower, 0.3
- GUUAACGGUCAUAGGCCAUGGAAACUAGGAGCACCAUUUCGCUGCCCGUGAAGAGAUGAACAAAGAAAAUCUGGGCCAGGCAGGCAUCAAAAGAAAUAGUCUUGCGCUCAACCAGAAAGUCUGUAAUCAUUUUAAGGGUA [A47C A55G] — lower, 1.43
- GUUAACGGUCAUAGGCCAUGGAAACUAGGAGCACCAUUUCGCUGCCCGUGAAGAAAUGAACAAAGAAAAUCUGGGCCAGGCAGGCAUCAAAAGAAAUAGUCUUGCGCUCAUCCAGAAAGUCUGUAAUCAUUUUAAGGGUA [A47C A111U] — lower, 0.07
- GUUAACGGUCAUAGGCCAUGGAAACUAGGAGCACCAUUUCGCUGCCCGUGAAGAAAUGAACAAAGAAAAUCAGGGCCAGGCAGGCAUCAAAAGAAAUAGUCUUGCGCUCAACCAGAAAGUCUGUAAUCAUUUUAAGGGUA [A47C U72A] — lower, 0.37
- GUUAACGGUCAUAGGCCAUGGAAACUAGGAGCACCAUUUCGCUGCCCGUGAAGAAAUGAACAAAGAAAAUCUGGGCCAAGCAGGCAUCAAAAGAAAUAGUCUUGCGCUCAACCAGAAAGUCUGUAAUCAUUUUAAGGGUA [A47C G79A] — lower, 0.14
- GUUAACGGUCAUAGGCCAUGGAAACUAGGAGCACCAUUUCGCUGCCCGUGAAGAAAUGAACAAAGAAAAUCUGGGCCAGGCAGGCAUCAAAAGAAGUAGUCUUGCGCUCAACCAGAAAGUCUGUAAUCAUUUUAAGGGUA [A47C A96G] — higher, 1.82
- GUUAACGGUCAUAGGCCAUGGAAACUAGGAGCACCAUUUCGCUGCCCGUGAAGAAAUGAACAAAGAAAAUCUGGGCCAGGCAGGCAUCAAAAGAAACAGUCUUGCGCUCAACCAGAAAGUCUGUAAUCAUUUUAAGGGUA [A47C U97C] — lower, 0.33
- GUUAACGGUCAUAGGCCAUGGAAACUAGGAGCACCAUUUCGCUGCUAGUGAAGAAAUGAACAAAGAAAAUCUGGGCCAGGCAGGCAUCAAAAGAAAUAGUCUUGCGCUCAACCAGAAAGUCUGUAAUCAUCUUAAGGGUA [C46U U131C] — higher, 2.02
- GUUAACGGUCAUAGGCCAUGGAAACUAGGAGCACCAUUUCGCUGCCCGUGAAGAAAUGAACAAUGAAAAUCUGGGCCAGGCAGGCAUCAAAAGAAAUAGUCUUGCGCUCAACCAGAAAGUCUGUAAUCAUUUUAAGGGUA [A47C A64U] — higher, 1.56
- GUUAACGGUCAUAGGCCAUGGAAACUAGGAGCACCAUUUCGCUGCCCGUGAAGAAAUGAACAAAGAAAAUCUGGGCCAGGCAGGCAUCAGAAGAAAUAGUCUUGCGCUCAACCAGAAAGUCUGUAAUCAUUUUAAGGGUA [A47C A90G] — higher, 1.61
- GUUAACGGUCAUAGGCCAUGGAAACUAGGAGCACCAUUUCGCUGCUAGUGAAGAAAUGAACAAAGAAAAUCUGGGCCAGGCAGGCAUCAAAAGAAAUAGUCUUGCGCUCAACCAGAAAGCCUGUAAUCAUUUUAAGGGUA [C46U U120C] — lower, 0.15
- GUUAACGGUCAUAGGCCAUGGAAACUAGGAGCACCAUUUCGCUGCUAGUGAAGAAAUGAACAAAGAAAAUCUGGGCCAGGCAGGCAUCAAAAGAAAUAGUCUUGCGCUCAACCAGAAAGUCUGUAAUCAUUCUAAGGGUA [C46U U132C] — higher, 1.97
- GUUAACGGUCAUAGGCCAUGGAAACUAGGAGCACCAUUUCGCUGCCCGUGAAGAAAUGAACAAAGAAAAUCUGGGCCAGGCAGGCAUCAAAAGAAAUAGUCUUGCGCUCCACCAGAAAGUCUGUAAUCAUUUUAAGGGUA [A47C A110C] — lower, 0.46
- GUUAACGGUCAUAGGCCAUGGAAACUAGGAGCACCAUUUCGCUGCCCGUGAAGAAAUGAACAAAGAAAAUCUGGGCCAGGCAGGCAUCAAAGGAAAUAGUCUUGCGCUCAACCAGAAAGUCUGUAAUCAUUUUAAGGGUA [A47C A92G] — lower, 0.95
- GUUAACGGUCAUAGGCCAUGGAAACUAGGAGCACCAUUUCGCUGCCCGUGAAGAAAUGAGCAAAGAAAAUCUGGGCCAGGCAGGCAUCAAAAGAAAUAGUCUUGCGCUCAACCAGAAAGUCUGUAAUCAUUUUAAGGGUA [A47C A60G] — higher, 1.63
- GUUAACGGUCAUAGGCCAUGGAAACUAGGAGCACCAUUUCGCUGCCCGUGAAGAAGUGAACAAAGAAAAUCUGGGCCAGGCAGGCAUCAAAAGAAAUAGUCUUGCGCUCAACCAGAAAGUCUGUAAUCAUUUUAAGGGUA [A47C A56G] — lower, 1.35
